Results on 18 sequences are retold here after a protein production outcome set (Wang et al. 2014).

This data set can be described thus: label from the status in PepcDB records.

As to “MFEFISLDRDGVLYIAAFLVIIRSVSLYIFSKGNNVDKANVNILMLVFFLLFMTASSLSSWPLIYFLALFFVGSIISFTWFTYSGMITPFGSGLTAISTTLLLCLLSYMLSFYETFVEHGFQAIFIAIFLFSIITSIYSFYYLPFSQNSLFYLNFKRNKKVMHIQSVSEVYSPKVTIHLPCYSEPPEIVINTLNSISALDYDNYEVIVIDNNTRDETLWKPVEKHCSMLGEKFRFYHVPVLAGAKAGALNYALKITSSDTELIAVIDADYITEPDFIRRYVKIFKDENVGFVQTSHDYYNHQSSPVMEGAYYFWTLFHKIELPSYTEINAAFTVGTMCILRRNILEKVGGWDETALTEDSELAVRMHAQGYIGYVFADTVGRGLIPTTFSDMKKQQVRWTAGPVQQLLKHWRLYFGFSSENKMTLNQRVMEIRHSTSRIKPVFSLISLHIMVVVSFFLLSGNVYLSIPYEFIVFFLCMLISTFIEKMAYFRLFNCSGILPVFYHGIMARALEWTFIYGVISSLFGFSMKWDRTNKFENSKSIKRAFLASKIEVVMSVFFFLYSFFLLSGNHSGYNDFVFLTGIACLVKGIGFLCALLVASLLENNLRILEAP”, the protein production result is “failed”.

Turning to “MFELLFLLLPIAALYGWYIGRLSVKKEQESINNKFSRDYVTGLNFLLSNQQEKAVDLFLSMLQKQESENQIATESQFEAELTLGNLFRSRGEVDRALRIHQALDSSLNYSIEQKLLAKQQLAKDFMAAGFYDRAENYYILLLDEPEFAVNSLTQLMVLYQKTNEWKKAINVAEKLLKIDPKTDRIPLSHYYCEYAQAIKSEDEDLYLRLLGKALEYSPLCTRASMLLGDYYLAQGQFSQALTHFEHILVQDPDYISEVLHNIKTCHAALHDFINYELFLIRSNQVKHNSSVDIALAELIEQKDGLIAAHSKLYQQLSKYPSMLIFHRFIYYQINEAEEGSAKESLVLLHNMVGARIKKSFQYRCLNCGYQSYRLSWYCPSCRQWEQIKPINGIDSY”, the protein production result was “failed”.

“MFELWYIHISLAIVSAIFSILIFLEFKSLRKEFHGKLSGVLLLISVLLLFESVVNAVAFSMWSYGHDPVYVYPSMAIAIVSTSVIILFYYYVAKV”: the protein production result was “failed”.

For the sequence “MFEMGIQELVKTIDTNINHMISLSVLNLAQLGIKYGIFKAVASRPSYEELLSQIPVPNKPLLKKLIEHLKALGIIEETPSNLILNGFSYVLKFPKEDYMLLLSDWIPIWEEIYKMVDFALISYSHPYVLMDFDKDADFWDIRLSSSFNKTYRDAIINLGEIREDSYILDLGCGSVSPAYFGKFISEDGKYVGVDYSPGLLEIARERVERNGLPAELKEMDVSLIRTRSKYDVAIMSFLLEYVRDREEVLGKVLEALDSGGKLIIVEAFRDEFENIQAMEFFESLNRSFVGYPAKAEIKKAILREGFDVSFEDYGKSILVVRKL”, the protein production result is listed as “failed”.

As for “MFENTLVVIKGAGDIATGVGRRLFRCGFPLVMTEQLQPTPVRRTVAFAEAVYKGETTVEGVTARLIEDPAHVYSTLREGHIPIIPDPEAHIIRVLNPKVVVDAILAKKNLGTAKSNAPIVIGLGPGFTAGKDVHAVIETNRGHNLGRVILNGSAEPNTGVPGVVNGYGSERVLRSPADGAIVPIREIGDFLLKGDVIAVVEGEPVVAPFDGTLRGLVHEKVTVFKGMKIGDVDPRASREHCYTISDKALAISGGVLEAILSHRHVITE”, the protein production result is “failed”.

As for “MFERFDSDRSRYASLGVVSSLPSGLIDSIWLIIDLNLKGVIPLNDLLHFDLLNNNGKVTVHFSQENSSVEMAIDLPFSYSTAYPSRIFAFDDGHRETILLPAEMLES”, the protein production result is “not failed”.

Take “MFERFTEKAIKVITLAQEEARRLGYNFFGTEHILLSLIGEGTGIAAKVLKSMGINLKDARVEVEKIIGRGSGFVVVEIPFTPRKACAGFVTRGSSTTRHKGIAVRVLEILGADPSNIRTQVNAPILVNSQQALVAEVMETATWQVGNTRRGKLDPVVGRQPQIKRVVQILARRTCRNNACLIGKPGVGKRAIAEGIAQRIASGDVPETIKGKMNVAGNCGWNEIRWRSRGKIEEVYGQSDDIILFIDEMHLLIGAGAVEGAIDAANILKPALERCELQYRKHIENDPALERRFQPVKVPEPTVEEAIQITTVLAKGKEVNKADNEAEEGRPTVTEADNEAE”: the protein production result is given as “failed”.

Regarding “MFESLNKVINGYGLISGFAIIGVTMAVSYWLSARLTRGRLHGSAIAIFLGLVLSYVGGVATGGQKGLVDVPLMSGIGLLGGAMLRDFAIVATAFGVNVEELRRAGVSGVVSLFLGVGSSFVAGVAVAMAFGYTDAVSLTTIGAGAVTYIVGPVTGAALGASSEVMALSIAAGLVKAILVMVLTPFVAPYIGLNNPRTAVIFGGLMGTSSGVAGGLAATDPKLVPYGCLTAAFYTAIGCLLGPSLLYFSVRGLVG”, the protein production entry is reported as “failed”.

Turning to “MFFKQFYDKHLSQASYLIGCQKTGEAMIIDPIRDLSSYIRVADEEGLTITHAAETHIHADFASGIRDVAIKLNANIYVSGESDDTLGYKNMPNHTHFVQHNDDIYVGNIKLKVLHTPGHTPESISFLLTDEGAGAQVPMGLFSGDFIFVGDIGRPDLLEKAVKVEGSSEIGAKQMFKSIESIKDLPDYIQIWPGHGAGSPCGKSLGAIPTSTLGYEKQTNWAFSENNEATFIDKLISDQPAPPHHFAQMKKINQFGMNLYQPYTVYPATNTNRLTFDLRSKEAYHGGHIEGTINIPYDKNFINQIGWYLNYDQEINLIGDYHLVSKATHTLQLIGYDDIAGYQLPQSKIQTRSIHSEDITGNESHILDVRNDNEWNNGHLSQAVHVPHGKLLETDLPFNKNDVIYVHCQSGIRSSIAIGILEHKGYHNIINVNEGYKDIQLS”, the protein production entry is given as “not failed”.

On to “MFFMLFVLRIPAAFTLMMVGFLGIATVTTWDAALAMLGSELWGSFSNYGLTVIPLFILVGEIVHYAGYNNSLYHATYKWFGHKRGGLAMTTILASAAFSAISGSNTATAATMSAVAIPAMKEYKYHPLLNAGSVAAGATLGVLIPPSIVLVVYGLYTGQSIGKLFFGNVIPSAILTILILLTVVWICRRHPDWGPEGPRSGWGERFAALPEAIDILILFAIIMYALFTGVVTATEAAAVSCFLALVICGLRRKLTWKKLTGALVDTLRISCMVFMIVAGAVIFAKFLTITRLPYETAEWISSLDLPRWMVLWVILACYIIGGCIMDALAFLLVSLPIFYPLVTQLGYDPIWFGQVITIVTTMGSIMPPIGICCYVVSGMSGIPLGTVFRSGLYYMPSYIASIAILMVSPYWTVLVLADLVK”, for which the protein production result was “failed”.

“MFFMQNTKSIYIIIPVHNRREVTLQCLTTLKLNEDLDQYRIVVVDDDSTDGTREAVNAQFPQVIVLEGDGNLWWTGAVKMGMKYAYEQGGELFILLNDDCYPQMGTISKLLKKIDENPNSVIGVQCLDPKSKEPSYGGILTNNNKLQVVKIFHTFNSMTDCDALNGNLLAIPRNIVDKVGFPDAKRFPHHFGDFVYTNRIKKEGYKLFLCNDIVALCEYHYNGLSKKSSQFNRFQELFTPTSQFYWKTEMKGYIELFGIKGIIIYLHKRCLLSSLKVIFLLLDQKLTL”: the protein production result is recorded as “failed”.

As for “MFFRSIRFSLTLWYAVTLAVILVLFSSFIYLVLSNQLNKGIDRELLTVAEAVASPTLEPFRHAAPSVFDQVLEDFIGTRLTGKHVQVLDGSGAVAASSKSMEELRIPLGKTALRRVQAGKVSYETRVNLDVYPVRTIVYPIMTDGRLDQIVLVGTSMRGPAETLEKVQLVFAVSIPLALILWSLGGWFLAGRALKPVDLITRSARKITAENLGLRLEVINPQDEIGRLATTFNDTLERLENAFNRIRQFTGDVSHELRTPLTILRGEAEVGLKWAKEPEEFRELLRSNLEEINRMSKIIETLLELSRVEGGVKLELADLDLSDLLAELVQQSRLIAPDKSLRIAFVGQEPVTILGDWLRLRQVFMNLLDNAVKYTPADGEISVVVDTTGDSARVAIIDSGPGIPPEDLPHIFERFYRVDKARNRADGGCGLGLSLVKTFVEAHGGRIEVVSEAGKGSIFTVLLPRVVAG”, the protein production result is reported as “not failed”.

Take “MFFVNRRLIKRVFLGFAVIALLLPLVLKQSFEITAEVIVQSKKLSQTDANTVLAPDSDKFIPPSLADMETESNILRSPTLIRDTIDQLRREGQFGGSEGLLTRLIVKPIRNGLIDPLRNHVINPVRGFFGLAVDPVRDTSLDAFTDQAVKDLKIGTLPGSNVISIVYASPNAAEGTRFVERLLANYLKNRQDLQSNELPEAFYEQKKAQYQSRLDDLEGKRQALLEAAHASDPKEEITFRLNAINTEEQSLNGYRDQALENQRRLDYLQKNLAAARKAGLTDYTFPFAFANTVDNVAYEDREIKQLGEQLTNLVSQYGTTADTYRADSVPMQQQREQIVRARAQFLKVVENRVRERSSDLQITQSVIAQKTARINDYKARVRDLQEVLSKLRQLDTEIDALHKAFFTYTQRYEESRGERLISGELSNARVLSQPYEPSEAAFPKPMLIIPLGLLTGLLLAIALGYVYEFFDHRFKHPAQVSDHLGLPVLMVLNAVEQPQVNPYPRWTWRWAWHWAKQ”: the protein production result was “failed”.

For the sequence “MFGAELVIVLLAIYLGARLGGIGIGFAGGLGVLVLTLIFQIKPGAIPFDVIEIIMAVIAAIAAMQVAGGMDYLVSLAERMLRRHPKYITFLAPLVTWFMTVLAGTGHTAFSTLPVITEVAKEQGIRPSRPLSIAVVASQIAITASPISAAVVFFAGILEPLGVSYLTLLAICIPVTLLAVMLTAIVCNFLGCELKDDPVYQERLAKGEVRLRGSQVFELQPHAKRSVLLFLIGIVAVMFYATAISDTVGLIKNPVLPRNEAIVVFMLTIATLISITCKIDTGEVLNASTFKSGMSACVCVLGVAWLGDTFVKAHISDIQAVAGDLLHNYPWLLAVVLFFAATLLYSQAATTKALMPAALLLGVSPLTAIASFAAVSALFVLPTYPTLLAAVEMDDTGSTRIGKYVFNHAFLIPGVIAITLCVILGFIFGGIML”, the protein production entry was “failed”.

As for “MFGCLVAGRLVQTDAQQVASDKFVFNLPDYEHVNHVVVFLLGTVPFPEGLGGAVYLCVPGGAAGQVWQLLGFITNEKPSAIFRISGLKAGEGSSHPFGMMDAPAAPSMAQVGVSVEGLHLLAQQTPVSSSAVSTLDSFTQFTQKMLDSLFNFTSSFALSQSRMSPNPSEMFIPASSIRRWYENFQRRLMQNPNFWKT”, the protein production result is reported as “failed”.

For the sequence “MFGCPKDLLNGPCGGALDGKCEVNSNLCPWYSLMEKFELLDGAPLLVEHPVVLEMERIFEGEEVEIKRSSFIKNLGRGKAISVEFPIRLFEKGVREFRKVGDLYTIPDNPLGYPHISPTALGTWLKSKGHSVMPHLTAKDRNVIAISSEFRTALEFDFEGILITTGDWSGFILQGKPVFDLDSANMIRLAKLMFSGVLPTGERVEVKERPFIAGTVNPNYPAKLEGKRLARKIIAGADLVISQVVANRKVVREIPKILQEALKYSPHEVPVVVSILYPLKRELEPILRKMGIKTGDDIRAIVEEISSLEFGGINVIVFEETRWEEKLNEVLDLLKELL”, the protein production result is “failed”.

For the sequence “MFGLGGEAMIKTQVVKLKVNKTMQKHLDALCDYRRYCWNKGLETWQLMYEAHTLTTKDNPSPNERRVRDELVAGKADWQYDLSARCLQLAIKDLANAWKNFLDKAQPDWGKPRFKSKKAPRQGFKTDRAEIVNGKLRLDKPWSIAKDNWFDLASYEALKMRKVKIASIFKEKGLYYAALTYEENIPAKAKTHKKTAIDVNVGHFNYTDGLINVLPVRLQKLYKRIKHYQRMLARKREINGKLATKTNNYLAVRAKLQRDYRKVVNIQNDLLQKFTTRLVNDYDQIVIEDLAVKEMMMTHVASKGMQRSLFGKFRQILTYKCDWYNKELILASKMYPSTQRCAKCGYVKKGDEKITLQGNQKHGTKHNEYICYRCGYTNDRDENAVLNLLALAK”, the protein production entry is “failed”.

For “MFIPQIVPIRDLKNTSAISNLCHKTNEPIFITKNGYGDMVIMSMETYEGNAFFNNLYGNLEEAEMDLQNGRVSGIDEAIEEIKSRYDL”, the protein production result is listed as “failed”.
